# From the nanobody polyreactivity screen of Harvey et al. (2022)
# Test: yeast display, Sf9 membrane polyspecificity reagent, FACS + sequencing; frameworks hold sequencing errors
# Procedure, shortened: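 A synthetic nanobody library was expressed on Saccharomyces cerevisiae BJ5465 by galactose induction for 36–48 hours. The library was stained for 1 hour at 4 °C with 10% biotinylated, detergent-solubilized Sf9 membrane reagent and enriched with streptavidin microbeads before FACS. Low and high (top ~1%) gates were set on anti-HA fluorescence for expression and streptavidin fluorescence for reagent binding, and each polyreactivity label reflects the gate of origin.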
sequence,measurement,value
QVQLVESGGGLVQAGGSLRLSCAASGSIFGRNAMGWYRQAPGKERELVAAITGSTYYADSVKGRFTISRDNAKNTVYLQMNSLKPEDTAVYYCNADYDVGWTYDTEYNYWGQGTQVTVSS,polyreactivity (PSR sort gate),low polyreactivity
QVQLVESGGGLVQAGGSLRLSCSASGFIFITVNAMGWYRQAPGKEREFVAAITRSGTGTYYADSVKGRFTISRDHAKNTVYLQMNSLKPEDTAVYYCAADATSTGAYDYWGQGTQVTVSS,polyreactivity (PSR sort gate),low polyreactivity
QVQLVESGGGLVQAGVSLRLSCAASGSIFFYNARGWYRQAPRKERELVAAITTRGGSTYYADSVKGRFTISRDNAQNYVYLQMNSLKPEDTAVSYCARSSRGKLDYWGQGTQVTVSS,polyreactivity (PSR sort gate),low polyreactivity
QVQLVESGGGLVQAGGSLRLSCAASGRIFADYAMGWYRQAPGKERELVAAISWRGGSRYYADSVKGRFTSSRDNAKNTVYLQMNSLKPEDTAVYYCNKASPADYDYWGQGTQVTVSS,polyreactivity (PSR sort gate),low polyreactivity
QVQLVESGGGLVQAGGSLRLSCAASGYIFVRYAMGWYRQAPGKERELVAAINSSGGRTYYADSVKGRFTISRDNAKNTVYLQLNSLKPEDTAVYYCAAYGYYRSGYRALEGYWGQGTQVTVAS,polyreactivity (PSR sort gate),high polyreactivity
QVQLVESGGGLVQAGGSLRLICAASGSTFGRYAMGWYRQAPGKERELVARISWGGGSTYYADSVKGRFTISRDNAKNTVYLQMYSLKPEDTAVYYCATRVYRSAVSYDYWGQGTQVTVSS,polyreactivity (PSR sort gate),high polyreactivity
QVQLVESGGGLVQAGGSLRLSCAASGRIFARNTMGWYRQAPGKERELVAAISWGGGRTYYADSVKGRFTISRDNAKNTVYLQMNSLKPEDTAVFYCAAETLQIPRGEYWGQGTQVTVSS,polyreactivity (PSR sort gate),low polyreactivity
QVQLEESAGGLVQAGGSHRLSCADTGRTFRWYAMGWYRQAPGKERELVAAISRNGGSTSFADSVKGRFTISRDNAKKTVYLQLNSLKPEDTAVYYCAAGSRVQWYGYDYWGQGTQVTVSS,polyreactivity (PSR sort gate),high polyreactivity
QVQLVESGGGLVQAGGSLRLSCAASGFTFPGNAMGWYRQAPGKEREFVAAITRSSGSTSYADSVKGRFTISRDNAKNTVYLQMTSLKPEDTAVYRDYWGQGTQVTVSS,polyreactivity (PSR sort gate),low polyreactivity
QVQLVESGGGLVQAGGSLRLSCAASGSIFKGYAMGWYRQAPGKERELVASISWRGDNTYYADSVKGRFTISRDYAKNTVYLQMNSLKPEDTAVYYCNAQSREHYFFIYDYWGQGTQVTVSS,polyreactivity (PSR sort gate),high polyreactivity
QVQLVESVGGLVQAGGSLRLSCAASGRTFTTNAMGWYRQAPGKERELVAAITIGDDTYYADSVKGRFTISRDNAKNTVYLQMNSLKPEDTAVYYCAADYKRVPFVTQYVSKDGYWGQGTQVTVSS,polyreactivity (PSR sort gate),low polyreactivity
QVQLVESGGGLVQAGGSLRLSCAASGNIFRPYTMGWYRQAPGKERELVARISSGGSTNYADSVKGRFTISRDNAKNTVYLQMNSLKPEDTAVYYCNTVFRGSSTRGYDYWGQGTQVTVSS,polyreactivity (PSR sort gate),high polyreactivity
QVQLVESGGVLVQAGARLRLSSAASRFTLALNTMGCYIQAPVKERELVAAISWSGGSTFADSVKGRFTISRDNAKNTFYLQMNSLKPEDTAVYYCAAPLHVAGGYSRDFGSWGQGTQVTVSS,polyreactivity (PSR sort gate),low polyreactivity
QVQLVESGGGLVQAGGSLRLSCAASGSIFYAYARGWYRQAPGKERELVATISSVGSTYYADSVKGRFTISRDNAKHTVYLHMNSLKPEDTAVHYCAKQRIVVYKTGYDYWGQGTQVTVSS,polyreactivity (PSR sort gate),low polyreactivity
QVQLQVSGGVLVQAGGSLRLTCAASGSIFLTSEMGWYRQAPGKERELVAAIATGTSTNYADSVKGRFTISRDNAKNTVYLQMNSLKPEDTAVYYCETYHYWGQGTQVTVSS,polyreactivity (PSR sort gate),low polyreactivity
QVQLVESGGGLVQAGGSLRLSCAASGIIFYYYAMGSDRQAPGKERELVAAITSSGVRTYYADSVKGRFTISRDNAKNTVYLQMNSLKPEDTAVYYCAASSVLYSRSYDYWGQGTQVTVSS,polyreactivity (PSR sort gate),high polyreactivity
QVQLVESCGGLVQAGGSLRLSCSATGSTSVANAMGWYRQAPGKEREIVAAITGYGVSTYYADSVKGRFTISRDNAKNTVFLQMNSLKPEDTAVYYCATRGVSTSRPGYYWGQGTQVSVSS,polyreactivity (PSR sort gate),high polyreactivity
QVQLVESGGGLVQAGGSLRLSCAASGRIIRINAMGWYRQAPGKERELVAAITRGGTTYADSVKGRFTISRDNAKNTVYLQMNSLKPEDTAVYYCNARTGRSPTGFRYWGQGTQVTVSS,polyreactivity (PSR sort gate),high polyreactivity
QVQLVESVGGLVQAGGSLRLSCAASGRPSNRYAMGWYRQAPGKERELVAAISGRGGSTYYADSVKGRFTISRDNAKNTVYLQMNSLKPEDTAVYYCAKQWYVAKISYDYWGQGTQVTVSS,polyreactivity (PSR sort gate),high polyreactivity
QVQLVESGGGLVQAGGSLRLSCAASGFIFSRYAMGWYRQAPGKERELVAAIRFSGSITYYADSVKGRFTISRDNAKNTVYLQMNSLKPEDTAVYYCAAYRRYYGWYEYWGQGTQVTVSS,polyreactivity (PSR sort gate),high polyreactivity
QDQLVESVGGLDQAGGSLRLSCAASGLIFQSYVMGWYRQAPGKERELVAAISSSVGSTHYADSVKGRFTISRDNAKNTVYLQMNSLKPEDTAVYYCAVEDYYADSGVEYDYWGQGTQVTVSS,polyreactivity (PSR sort gate),low polyreactivity
QVQLVESGGGLVQAGGSLRLSCAASGSIFVVYAMGWYRQAPGKERELVASIRTGGSTNYADSVKGRFTISRDNAKNTVYLQMNSLKPEDTAVYYCAAASWNCNRHYYVARYYYWGQGTQVNVSS,polyreactivity (PSR sort gate),high polyreactivity
